From patent US20240069033A1, “METHOD FOR SCREENING FOR CANDIDATE MOLECULE CAPABLE OF FORMING COMPLEX IN CONJUNCTION WITH PLURALITY OF TARGET MOLECULES” (Chugai Seiyaku Kabushiki Kaisha, priority 2020, published 2024)
No end group written: not given here. puromycin linker = puromycin spacer joining the C-terminus of the translated peptide to its mRNA (mRNA display); mRNA = not defined here

Columns and labels:
[1] = molecular target: anti-ubiquitin antibody (Mouse IgG1 monoclonal antibody; clone name FK2); assay: mRNA display pull-down on anti-ubiquitin antibody (FK2) magnetic beads, qPCR; corrected with the display efficiency
[2] = molecular target: anti-ubiquitin antibody (Mouse IgG1 monoclonal antibody; clone name FK2); assay: mRNA display pull-down on anti-ubiquitin antibody (FK2) magnetic beads, heat elution, qPCR
biotinylated GFP1-9 [3] = assay: mRNA display pull-down: 0.42 µM Display molecule with 1 µM biotinylated GFP1-9, streptavidin beads, TEV elution, qPCR
biotinylated GFP1-9 [4] = assay: mRNA display pull-down with biotinylated GFP1-9, qPCR
biotinylated GFP1-9 [5] = assay: mRNA display pull-down with biotinylated GFP1-9, qPCR; corrected with the display efficiency
[6] = molecular target: T1, biotinylated splitNanoluc1-8; assay: mRNA display pull-down with biotinylated splitNanoluc1-8, qPCR; corrected with the display efficiency
T1 chain: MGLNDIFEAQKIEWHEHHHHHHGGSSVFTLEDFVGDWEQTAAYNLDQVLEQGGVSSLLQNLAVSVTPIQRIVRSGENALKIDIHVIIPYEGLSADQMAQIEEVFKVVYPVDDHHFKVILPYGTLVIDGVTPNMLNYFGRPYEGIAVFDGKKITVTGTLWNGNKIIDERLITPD

[7] = molecular target: T1, biotinylated splitNanoluc1-8; assay: mRNA display pull-down: 33 nM Display molecule with 1 µM biotinylated splitNanoluc1-8, streptavidin beads, TEV elution, qPCR
[8] = molecular target: anti-ubiquitin antibody (Mouse IgG1 monoclonal antibody; clone name FK2); assay: mRNA display pull-down on anti-ubiquitin antibody (FK2) magnetic beads, qPCR; display molecule at 0.4 µM

B1: splitUb(N) (peptide)
peptide: MMQIFVKTLTGKTATLEVEPSDTIENVKAKIQDKEGIPGSGSGSGSKK-{puromycin linker-mRNA}
modifications: reading uncertain; also: mRNA reverse transcribed before assay
**Q.** Which results are given for B1?
**A.** Recovery rate (%) [1]: 1.04%; Apparent recovery rate (%) [2]: 0.931%; Recovered nucleic acid amount (molecules) [2]: 1.63e+10 molecules

B2: GFP10 (peptide)
peptide: MDLPDDHYLSTQTILLKDLNGSGSGSGSKK
modifications: not checked
**Q.** With B2 as the binder, how does the Apparent recovery rate (%) (biotinylated GFP1-9 [3]) read?
**A.** 0.0237%

**Q.** And the Recovered nucleic acid amount (molecules) (biotinylated GFP1-9 [3])?
**A.** 2.32e+08 molecules

**Q.** What about the fold lower recovery rate than the GFP10-11 fusion peptide (biotinylated GFP1-9 [4]) of the same binder?
**A.** 1000 times

**Q.** What about the Recovery rate (%) (biotinylated GFP1-9 [5]) of the same binder?
**A.** 0.028%

B3: GFP11 (peptide)
peptide: MEKRDHMVLLEYVTAAGITDASGSGSGSGSKK
modifications: not checked
**Q.** Which Apparent recovery rate (%) (biotinylated GFP1-9 [3]) does the source give for B3 here?
**A.** 0.0109%

**Q.** What about the Recovered nucleic acid amount (molecules) (biotinylated GFP1-9 [3]) of the same binder?
**A.** 8.95e+07 molecules

**Q.** And the fold lower recovery rate than the GFP10-11 fusion peptide (biotinylated GFP1-9 [4])?
**A.** 1000 times

**Q.** What about the Recovery rate (%) (biotinylated GFP1-9 [5]) of the same binder?
**A.** 0.012%

B4: splitNanoluc9-10 fusion peptide (peptide)
peptide: MGSMLFRVTINSGGGSGGGGSGVSGWRLFKKISGSGSGSGSENLYFQGKK
modifications: not checked
**Q.** How did the Recovery rate (%) [6] turn out when B4 was run?
**A.** 33.2%

**Q.** And the Apparent recovery rate (%) [7]?
**A.** 12.6%

**Q.** And the Recovered nucleic acid amount (molecules) [7]?
**A.** 3.45e+09 molecules

B5: Epep-splitUb(N) (protein)
chain: MKVSALENEVSALEKEVSVLEKEVSALEKEVRALEKGSGSGSGSMQIFVKTLTGKTATLEVEPSDTIENVKAKIQDKEGIPGSGSGSGSKK
modifications: C-terminus joined through a puromycin linker to its own mRNA (reverse transcribed before the assay)
**Q.** Which results are given for B5?
**A.** Recovery rate (%) [1]: 0.0004%; Apparent recovery rate (%) [8]: 0.0001%; Recovered nucleic acid amount (molecules) [8]: 377000 molecules
